From US7985736B2, “High throughput screen utilizing newly discovered intramolecular neuronal calcium channel interactions to discover new analgesics” (The John Hopkins University, priority 2004, dated 2011)

Assays:
[1] = target: T1, Gβ1 (Bos taurus, UniProt P62871); test: Yeast two-hybrid assay, channel fragments versus Gβ1; assay type: binding; details: Gβ1 in pGADT7, channel fragment in pGBKT7
T1 construct: expressed in transfected cells; host or cells: AH109 yeast
Description: For yeast two-hybrid assays, a PCR fragment encoding one partner was fused, in-frame, with the GAL4 DNA binding domain (BD) in pGBKT7 (Clontech, Palo Alto, Calif.). The other element was fused, in-frame, with the GAL4 activation domain (AD) in pGADT7. For specific residues, see Supplemental Data (section 2). For electrophysiology, NT peptides lacking fluorophore tag were PCR amplified and cloned in pcDNA3. NTB peptide residues, 1-95; NTC residues, […]. Throughout, all segments subject to PCR or QuikChange were verified in their entirety by sequencing.
The Matchmaker GAL4 Two-Hybrid System 3 was used (Clontech, Palo Alto, Calif.). AH109 yeast were transformed with pGBKT7/pGADT7-based constructs (Yeastmaker Yeast Transformation System 2 kit, Clontech). After 5-8 days, growth on -leucine/-trytophan plates confirmed transformation of both plasmids. If partners interact, GAL4 BD/AD would complex, activating reporter genes (HIS3, ADE2, lacZ, and MEL1), for which assays are detailed in the Supplemental Data (section 2.1).
As a ‘medium’ stringency assay, expression of the lacZ gene was tested for encoding β-galactosidase, performing a filter lift with application of blue chromogenic substrate (Clontech-Laboratories, 1999). After the filter lift, original plates were re-grown for 2-3 days at 30° C. Filter paper was then used to replicate colonies onto a high stringency plate (-adenine/-histidine/-leucine/-trytophan). These plates were then incubated at 30° C. for 5-8 days. Survival on high stringency plates indicates production of both adenine and histidine, from transcription of the ADE2 and HIS3 genes, respectively. The percentage of colonies that turned blue in the filter lift assay, along with the percentage of colonies that survived on high stringency plates, was recorded for each pairing. Experiments were repeated at least three times. False positives were controlled for by testing each segment in pGBKT7 against empty pGADT7, and each segment in pGADT7 against lamin C in pGBKT7 (lamin C interacts with few proteins). […]

[2] = target: T2, I-IIC (Oryctolagus cuniculus, UniProt P15381); test: Live-cell FRET two-hybrid assay versus I-IIC in HEK293 cells; assay type: binding, rabbit; details: compared with NTB/I-IIB pair
T2 construct: I-IIC residues, 436-554; expressed in transfected cells; host or cells: HEK293
Description: To confirm preferential interaction of NTB with I-IIB a live-cell FRET two-hybrid assay was used (Erickson et al., 2003), in which NTB, NTC, I-IIB, and I-IIC were fused to either CFP or YFP, and the resulting fusion constructs expressed pair-wise in mammalian HEK293 cells. Given a Forster distance of ˜50 Å for the CFP/YFP pair (Patterson et al., 2000), the presence of FRET in individual cells would give a strong indication of interpeptide binding in the mammalian intracellular milieu. This indication is generally characterized by a low false-positive rate (Erickson et al., 2003), so that FRET assays provide a useful complement to yeast two-hybrid assays (Allen et al., 1995). […] SCFP (the signal derived from an image obtained with the CFP filter cube) is selective for CFP fluorescence and thereby gives an optical measure of NTB-CFP expression. Analogously, the SYFP signal, derived from preferential excitation and detection of YFP, estimates I-IIB-YFP levels. Finally, the SFRET signal reflects I-IIB-YFP fluorescence stimulated by FRET transfer from NTB-CFP, as well as secondary cross-talk signals. […]
Experiments were performed mostly as previously described (Erickson et al., 2001; Erickson et al., 2003). […] For donor-dequenching analysis, EEFF is calculated as EEFF=^1−CFPpre/CFPpost, where CFPpre and CFPpost are the CFP emissions before/after 3 min YFP photobleaching. […]

[3] = target: T3, I-IIB-YFP (Homo sapiens, UniProt Q00975); test: Live-cell FRET two-hybrid assay versus I-IIB-YFP in HEK293 cells; assay type: binding
T3 construct: I-IIB residues, 357-482; expressed in transfected cells; host or cells: HEK293
Description: To confirm preferential interaction of NTB with I-IIB a live-cell FRET two-hybrid assay was used (Erickson et al., 2003), in which NTB, NTC, I-IIB, and I-IIC were fused to either CFP or YFP, and the resulting fusion constructs expressed pair-wise in mammalian HEK293 cells. Given a Forster distance of ˜50 Å for the CFP/YFP pair (Patterson et al., 2000), the presence of FRET in individual cells would give a strong indication of interpeptide binding in the mammalian intracellular milieu. This indication is generally characterized by a low false-positive rate (Erickson et al., 2003), so that FRET assays provide a useful complement to yeast two-hybrid assays (Allen et al., 1995). […] SCFP (the signal derived from an image obtained with the CFP filter cube) is selective for CFP fluorescence and thereby gives an optical measure of NTB-CFP expression. Analogously, the SYFP signal, derived from preferential excitation and detection of YFP, estimates I-IIB-YFP levels. Finally, the SFRET signal reflects I-IIB-YFP fluorescence stimulated by FRET transfer from NTB-CFP, as well as secondary cross-talk signals. These three signals can be incorporated within a three-cube FRET algorithm to determine the strength of FRET interaction (“FRET ratio,” FR), independently of cross-talk (Erickson et al., 2001). FR adopts a value of unity in the absence of FRET and grows linearly with increasing FRET efficiency (Erickson et al., 2003). FR values for many individual cells are plotted as circles in FIG. 2Eb, with numerous determinations clearly greater than unity. Alternatively, FR values specified by a YFP-photobleaching methodology were also elevated above unity (triangles) (Bastiaens and Jovin, 1996). […] Consistent with yeast two-hybrid assays, then, FRET assays confirmed a selective propensity for NTB and I-IIB segments to associate.
Human m2 muscarinic acetylcholine receptor (AF498916) was engineered to reduce desensitization (Pals-Rylaarsdam and Hosey, 1997). QuikChange (Stratagene, La Jolla, Calif.) introduced cluster mutations, yielding m2R: residues 286-290 (STSVS/AAAVA), residues 307-311 (TVSTS/AVAAA). For FRET assays, base templates were ECFP/EYFP-tagged calmodulin constructs in pcDNA3 (Invitrogen, Carlsbad, Calif.), as described (Erickson et al., 2001). PCR-amplified channel segments or G proteins were substituted for calmodulin via upstream EcoRI and downstream NheI sites, creating in-frame fusions with fluorophore (ECFP/EYFP C-terminal to test molecules). NTC residues, 1-53; I-IIB residues, 357-482; and I-IIC residues, 436-554.
Experiments were performed mostly as previously described (Erickson et al., 2001; Erickson et al., 2003). Briefly, the FRET Ratio (FR) is the fractional increase in YFP emission due to FRET. […] For donor-dequenching analysis, EEFF is calculated as EEFF=^1−CFPpre/CFPpost, where CFPpre and CFPpost are the CFP emissions before/after 3 min YFP photobleaching. FR is determined by FR=(EEFF/[EYFP/ECFP])+1, where EYFP/ECFP is ratio of YFP and CFP molar extinction coefficients through 440 nm excitation bandpass of FRET cube (0.0574). For binding model analysis, Kd,EFF is the effective dissociation constant, related to actual Kd via filter/microscope optical characteristics. […]
Experiments were performed as described previously for the most part (Erickson et al., 2001; Erickson et al., 2003). Specifically, for quantitative analysis, all fluorescence from single cells were isolated through a pinhole in the image plane, and detected by photo-multiplier tube. In all three-cube FRET experiments, CFP levels were below a threshold where spurious, concentration-dependent FRET became significant (Stratton et al., 2004). Similarly, for donor-dequenching experiments, YFP levels were below an analogous threshold. […]

T2 sequence (P15381 436-554): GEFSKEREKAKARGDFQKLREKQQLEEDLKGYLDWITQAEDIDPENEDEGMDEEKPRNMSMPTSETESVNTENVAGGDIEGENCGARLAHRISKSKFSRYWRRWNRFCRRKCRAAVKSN
T3 sequence (Q00975 357-482): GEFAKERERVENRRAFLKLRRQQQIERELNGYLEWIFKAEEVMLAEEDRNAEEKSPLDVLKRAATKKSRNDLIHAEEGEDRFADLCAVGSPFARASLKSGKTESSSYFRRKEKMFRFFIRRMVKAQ
T1 sequence (P62871 whole entry, the tested form may be a part): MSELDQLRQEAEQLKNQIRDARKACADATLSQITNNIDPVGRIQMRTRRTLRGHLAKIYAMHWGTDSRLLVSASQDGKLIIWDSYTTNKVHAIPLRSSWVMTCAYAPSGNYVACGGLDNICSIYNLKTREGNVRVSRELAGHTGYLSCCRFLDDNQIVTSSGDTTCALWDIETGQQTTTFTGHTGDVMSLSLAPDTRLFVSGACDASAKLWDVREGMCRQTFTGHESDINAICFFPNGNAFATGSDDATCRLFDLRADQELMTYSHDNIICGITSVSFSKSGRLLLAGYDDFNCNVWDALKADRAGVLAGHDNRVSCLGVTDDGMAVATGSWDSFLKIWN

Row | Molecule | Interaction with Gβ1 (yeast two-hybrid) [1] | Kd,EFF for I-IIC (FRET), in words [2] | Kd,EFF relative to NTB/I-IIB ([3]; NTC-CFP versus I-IIB-YFP, lower-limit estimate) [fold] | Kd,EFF / affinity for I-IIB (FRET), in words ([3]; relative dissociation constant, HEK293 cells)
1 | NTC: NH3 terminus of L-type channel α1C subunit, free peptide [reference compound] | interact | larger by an order of magnitude or more | ≥ 8 | larger by an order of magnitude or more
2 | NTB: NH3 terminus of N-type channel α1B subunit, residues 1-95, expressed as free peptide (SEQ ID NO.: 1) (protein, listed as Homo sapiens) MVRFGDELGGRYGGPGGGERARGGGAGGAGGPGPGGLQPGQRVLYKQSIAQRARTMALYNPIPVKQNCFTVNRSLFVFSEDNVVRKYAKRITEWP | interact | larger by an order of magnitude or more | – | –
